Results taken from patent publication US20080213277A1.

Legend:
[1] = biological target: linear hepcidin variant (human); experiment: BIAcore: 1 nM antibody preincubated with 10 nM of this hepcidin form in solution, then run over immobilized rhHepc surface; % = free antibody still binding the surface (low % = strong binding to the solution form)
[2] = biological target: C1-C8, C3-C6 hepcidin variant (human); experiment: as above

| Binder | Binding to Hepcidin Surface (%) [1] | Binding to Hepcidin Surface (%) [2] |
| --- | --- | --- |
| murine anti-human hepcidin monoclonal antibody 2.41 (antibody, V domains shown) VH: QIQLVQSGPELKKPGETVKISCKASGYTFTTYGMSWVKQAPGKGLKWMGWINTSSGVPTYADDFMGRFAFSLETSASTAYLQINNLKNEDTATYFCARDRYYGEVAYWGQGTLVTVSA VL: DIVLTQSPASLAVSLGQRATISCRASESVDSFGNSFMHWYQLKPGQPPKLLIYRASNLESGIPARFSGSGSRTDFTLTINPVEADDVAIYYCQQSNEEYTFGGGTKLEIK | 99% | 1% |
| murine anti-human hepcidin monoclonal antibody 2.7 (antibody, V domains shown) VH: QIQLVQSGPELKKPGETVKISCKASGYTFTTYGMSWVKQAPGKGLKWMGWINTYSGVPTYADDFKGRFAFSLETSASTAYLQINNLKNEDTATYFCGRDHYYGEVAYWGQGTLVTVSA VL: DIVLTQSPASLAVSLGQRATISCRASESVDSYGNSFMHWYQQKPGQPPKLLIYRASNLESGIPARFSGSGSRTDFTLTINPVEADDVATYYCHQSNEEYTFGGGTKLEIK | 100% | 3% |

The remaining lines, values ahead:

| Binding to Hepcidin Surface (%) [1] | Binding to Hepcidin Surface (%) [2] | Binder |
| --- | --- | --- |
| 100% | 63% | rat anti-human hepcidin monoclonal antibody R9 (antibody, V domains shown) VH: QVTLKESGPGILQPSQTLSLTCSFSGFSLSTSGICVSWIRQPSGKGLEWLATICWEDSKGYNPSLKNRLTISKDTSNNQAFLKITSVDTADTAIYYCARPLNYGGYSELELDYWGQGVMVTVSS VL: DIQMTQSPSLLSASVGDRVTLSCKASQNIYKYLNWYQQKLGEAPKLLIYYTNSLQTGIPSRFSGSGSGTDFTLTISSLQPEDVATYYCYQYNSGPTFGAGTKLELK |
| 100% | 25% | murine anti-human hepcidin monoclonal antibody Ab43 (antibody, V domains shown) VH: QIQLVQSGPELKKPGETVKISCKASGYTFTTYGMSWVKQAPGKGLKWMGWINTYSGVPTYADDFKGRFAFSLETSASTAYLQINNLKNEDTATYFCASLWYYGRAFDYWGQGTTLTVSS VL: NIVLTQSPASLAVSLGQRATISCRASESVDSYGNSFMHWYQQKPGQPPKLLIYLASNLESGVPARFSGSGSRTDFTLTIDPVEADDAATYYCQQNNEDRTFGGGTKLEIK |
